The chains are these.
B1: humanized 438 VH1.1/VL1.1 (antibody, human IgG1, V domains shown)
VH: EVQLVESGGGLVQPGGSLRLSCAASGFTFSSFAMAWVRQAPGKGLEWVASISYGGADTYYRDSVKGRFTISRDNAKNSLYLQMNSLRAEDTAVYYCAKDLPYYGYTPFVMDAWGQGTLVTVSS
VL: DIQLTQSPSSLSASVGDRVTITCRASQRINTDLHWYQQKPGKAPKVLIKFASQTISGVPSRFSGSGSGTDFTLTISSLQPEDFATYYCQQSNSWPYTFGQGTKLEIK
B2: humanized 438 VH1.1/VL1.3 (antibody, human IgG1, V domains shown)
VH: B1 VH
VL: B1 VL with V46L, K49Y
B3: humanized 438 VH1.0/VL1.8 (antibody, human IgG1, V domains shown)
VH: B1 VH with K98R
VL: B1 VL with L4M
B4: humanized 438 VH1.1/VL1.0 (antibody, human IgG1, V domains shown)
VH: B1 VH
VL: B1 VL with L4M, V46L, K49Y
B5: humanized 438 VH1.0/VL1.1 (antibody, human IgG1, V domains shown)
VH: B1 VH with K98R
VL: B1 VL
B6: humanized 438 VH1.1/VL1.5 (antibody, human IgG1, V domains shown)
VH: B1 VH
VL: B1 VL with L4M, V46L
B7: humanized 438 VH1.1/VL1.9 (antibody, human IgG1, V domains shown)
VH: B1 VH
VL: B1 VL with Q3M
B8: rat 438-hIgG1 (antibody, V domains shown)
VH: AVQLVESGGGLVQPGRSLKLSCTASGFTFSSFAMAWVRQAPTKGLEWVASISYGGADTYYRDSVKGRFTISRDNAKSSLYLQMDSLRSEDTSTYYCAKDLPYYGYTPFVMDAWGQGTSVTVSS
VL: DIMLTQSPPTLSVTPGETISLSCRASQRINTDLHWYQQKPNESPRVLIKFASQTISGVPSRFSGSGSGTDFTLNINRVEPEDFSVYYCQQSNSWPYTFGAGTKLELK
notes: also called r438-hIgG
B9: parental rat 438 (antibody, V domains shown)
VH: B8 VH
VL: B8 VL
notes: Rat monoclonal IgG from a hybridoma
B10: rat 351(R58Y/V60R)-mIgG1 (antibody, V domains shown)
VH: EVQLVESGGGLVQPGRSLKVSCLASGFTFSHYGMNWIRQAPGKGLDWVASISRSGSYIYYRDTVKGRFTVSRDIAKNTLYLQMTSLRSEDTALYYCAREGQFGDYFEYWGQGVMVTVSS
VL: DIMLTQSPATLSVTPGERISLSCRASQKISTNLHWYQQKPNESPRILIKYASQTISGIPSRFSGSGSGTDFTLHINTVEPEDFSVYYCQQTNSWPLTFGSGTKLEIK

Changes are numbered by the printed parent chain. In names and notes the source's numbering stands. Several values for one entry are separate records, joined by “and”; a condition that tells them apart may be missing. Equal values may be shown once.

One test deals with T1, full-length human Notch1 expressed on the cell surface (human, UniProt P46531 19-2555).
T1 construct: whole, on cells; On U-2 OS cells stably overexpressing it (ELISAs, reporter cells); also called cell surface full-length human Notch1; native Notch1 receptor
T1 sequence (P46531 19-2555): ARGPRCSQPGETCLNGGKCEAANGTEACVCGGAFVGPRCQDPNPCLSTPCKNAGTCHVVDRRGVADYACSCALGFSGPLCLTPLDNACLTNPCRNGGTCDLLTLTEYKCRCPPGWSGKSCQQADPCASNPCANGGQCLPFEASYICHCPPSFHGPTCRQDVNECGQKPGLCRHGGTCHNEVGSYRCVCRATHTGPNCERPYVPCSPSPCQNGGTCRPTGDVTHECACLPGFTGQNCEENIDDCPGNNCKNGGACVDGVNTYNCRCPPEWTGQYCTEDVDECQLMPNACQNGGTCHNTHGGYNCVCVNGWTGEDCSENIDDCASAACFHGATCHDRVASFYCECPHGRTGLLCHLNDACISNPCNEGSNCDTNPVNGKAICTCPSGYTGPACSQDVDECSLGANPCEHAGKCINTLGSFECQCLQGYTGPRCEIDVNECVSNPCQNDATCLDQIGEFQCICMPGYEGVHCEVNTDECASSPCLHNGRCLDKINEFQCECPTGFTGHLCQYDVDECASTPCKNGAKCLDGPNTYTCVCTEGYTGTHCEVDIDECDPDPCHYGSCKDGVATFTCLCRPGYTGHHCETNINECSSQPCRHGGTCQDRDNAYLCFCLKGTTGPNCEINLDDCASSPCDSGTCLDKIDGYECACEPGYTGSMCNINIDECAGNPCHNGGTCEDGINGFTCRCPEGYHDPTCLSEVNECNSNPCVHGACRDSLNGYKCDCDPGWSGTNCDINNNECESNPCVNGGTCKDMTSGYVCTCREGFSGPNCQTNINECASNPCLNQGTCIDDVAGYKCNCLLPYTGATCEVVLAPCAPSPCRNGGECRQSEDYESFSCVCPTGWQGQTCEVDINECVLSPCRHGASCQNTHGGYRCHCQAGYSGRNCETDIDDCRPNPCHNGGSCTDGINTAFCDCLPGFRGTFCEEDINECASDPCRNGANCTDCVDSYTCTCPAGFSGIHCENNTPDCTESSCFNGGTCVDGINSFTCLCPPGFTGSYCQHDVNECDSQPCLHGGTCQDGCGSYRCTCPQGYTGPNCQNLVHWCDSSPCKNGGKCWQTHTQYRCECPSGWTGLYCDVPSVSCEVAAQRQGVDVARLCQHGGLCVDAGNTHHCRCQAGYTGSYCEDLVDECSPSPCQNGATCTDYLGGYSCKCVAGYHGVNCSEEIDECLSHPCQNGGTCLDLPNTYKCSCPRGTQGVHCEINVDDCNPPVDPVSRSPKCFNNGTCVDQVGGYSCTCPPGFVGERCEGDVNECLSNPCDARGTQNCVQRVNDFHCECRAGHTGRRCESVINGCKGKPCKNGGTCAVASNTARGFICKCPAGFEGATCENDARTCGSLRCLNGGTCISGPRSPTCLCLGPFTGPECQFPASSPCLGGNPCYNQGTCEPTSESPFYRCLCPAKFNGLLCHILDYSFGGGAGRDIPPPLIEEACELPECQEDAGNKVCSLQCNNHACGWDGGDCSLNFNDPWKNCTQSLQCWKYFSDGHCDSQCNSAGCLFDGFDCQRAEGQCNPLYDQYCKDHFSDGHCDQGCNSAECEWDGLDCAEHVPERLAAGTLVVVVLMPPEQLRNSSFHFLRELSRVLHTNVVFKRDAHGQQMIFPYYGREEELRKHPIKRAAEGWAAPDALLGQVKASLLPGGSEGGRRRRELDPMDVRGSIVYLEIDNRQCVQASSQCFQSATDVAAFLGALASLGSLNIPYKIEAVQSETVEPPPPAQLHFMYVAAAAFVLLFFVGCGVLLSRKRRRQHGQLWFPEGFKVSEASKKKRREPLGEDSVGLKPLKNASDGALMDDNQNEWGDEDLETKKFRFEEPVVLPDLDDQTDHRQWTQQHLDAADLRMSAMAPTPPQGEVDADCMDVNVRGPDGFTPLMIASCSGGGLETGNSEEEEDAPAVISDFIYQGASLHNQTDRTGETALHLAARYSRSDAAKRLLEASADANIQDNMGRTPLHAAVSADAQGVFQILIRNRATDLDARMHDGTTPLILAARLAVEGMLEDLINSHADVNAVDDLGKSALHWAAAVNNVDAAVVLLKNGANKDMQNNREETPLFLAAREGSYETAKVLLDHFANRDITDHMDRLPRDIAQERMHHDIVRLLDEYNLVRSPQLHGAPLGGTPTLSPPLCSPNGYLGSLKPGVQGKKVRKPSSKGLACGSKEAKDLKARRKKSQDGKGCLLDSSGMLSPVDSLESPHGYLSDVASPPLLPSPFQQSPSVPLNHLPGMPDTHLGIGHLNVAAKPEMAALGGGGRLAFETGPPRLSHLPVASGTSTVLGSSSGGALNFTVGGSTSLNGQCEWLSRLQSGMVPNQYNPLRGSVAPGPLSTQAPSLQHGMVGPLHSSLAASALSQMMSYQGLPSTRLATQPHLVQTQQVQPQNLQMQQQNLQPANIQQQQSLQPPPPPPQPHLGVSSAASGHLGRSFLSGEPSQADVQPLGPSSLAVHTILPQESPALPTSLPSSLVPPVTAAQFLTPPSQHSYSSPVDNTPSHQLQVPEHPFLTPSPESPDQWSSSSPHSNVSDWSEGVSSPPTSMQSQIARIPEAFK
Briefly: competition ELISA on U-2 OS cells expressing full-length human Notch1; competitor 0.8 nM biotinylated rat 438. How it is done: (§1) In a similar manner as described for recombinant protein or cell based ELISAs, 96 well cell culture plates were either coated with Notch1 NRR-Avi_His protein (hi-bound co-Star plates), or seeded with full length Notch1 expressing U-2 OS cells (cell culture plate, Co-star), respectively.
(§2) After incubation for 2 hours, the plates were washed, as described above, and HRP-conjugated streptavidin (Southern Biotech) diluted 1:5000 in blocking buffer was applied. Incubation with streptavidin was allowed for 30 min before the plates were washed again and developed with TMB solution for 10 minutes. Developing reaction was stopped by adding 0.18M H₂SO₄ and absorbance at 450 nm was measured. Data plotting and analyses were performed with Microsoft Excel and Graphpad-Prizm software.
For orientation: An ELISA detects its analyte on a solid surface through an enzyme-linked reagent.
One may read the EC50 as the concentration needed to bring the measured effect to its halfway point. With B1, the EC50 is 2.4 nM.
B2 registered a half-maximal effective concentration (EC50) of 2.8 nM.
In turn, B3 yielded an EC50 of 11.6 nM.
On the same count and under the same terms, the same measure for B4: 2.8 nM; for B5: 4 nM.
In the case of B6, the EC50 came out at 3.3 nM.
The same measure, in the same setting: the same measure for B7: 2.2 nM; for B8: 4.4 nM.

A further test addresses T1, full-length human Notch1 expressed on …. Briefly: cell-based ELISA, U-2 OS cells expressing full-length human Notch1. As to the method:
(§3) Supernatants from clones displaying positive binding to immunogens in recombinant Notch1 NRR based ELISAs described above were then screened for cell surface Notch1 binding in a cell-based ELISA. U-2 OS cells stably overexpressing human or mouse full length Notch1 protein on cell surface were plated at 50,000 cells/well in 96 well plates (white opaque, BD/VWR) the day before ELISA assay. On the day of the ELISA, culture media were removed from wells and serially diluted (1:3 in blocking buffer) antibody solutions or hybridoma culture supernatants were applied to the plate. Plates were incubated at room temperature for 2 hours before being washed with PBS-Mg/Ca. HRP-conjugated secondary antibody was then applied and incubated with cells for 1 hour as described above for recombinant protein ELISA. Plates were washed with PBS-Mg/Ca before being developed with Pico-Chemiluminescent developing kit (Thermal Scientific), and chemiluminescence measurements were performed per manufacturer's instructions. Data plotting and analyses were performed with Microsoft Excel and Graphpad-Prizm software.
On to B1, for which the EC50 stood at 0.177 nM.
For the molecule B2, it took 0.152 nM to reach a half-maximal effect (EC50).
Molecule B4 came in with an EC50 of 0.296 nM.
As for B5, the EC50 stood at 0.305 nM.
B6 registered a 50% effective concentration (EC50) of 0.219 nM.
For the molecule B7, the response was half-maximal at 0.178 nM (EC50).
In the case of B9, the midpoint of the response, the EC50, lay at 0.213 nM.

For the next test, the target named is T2, human Notch1 NRR_Avi_His recombinant protein (human, UniProt P46531 1434-1737).
T2 construct: Secreted from CHO-PACE cells; cleaved at S1 into an N-terminal ~26 kDa half (LNR-A, B, C, HD1) and a C-terminal ~12 kDa half (HD2 and tag) that stay associated non-covalently; written here as one chain; also called recombinant human Notch1 NRR; human Notch1 NRR immunogen
T2 sequence: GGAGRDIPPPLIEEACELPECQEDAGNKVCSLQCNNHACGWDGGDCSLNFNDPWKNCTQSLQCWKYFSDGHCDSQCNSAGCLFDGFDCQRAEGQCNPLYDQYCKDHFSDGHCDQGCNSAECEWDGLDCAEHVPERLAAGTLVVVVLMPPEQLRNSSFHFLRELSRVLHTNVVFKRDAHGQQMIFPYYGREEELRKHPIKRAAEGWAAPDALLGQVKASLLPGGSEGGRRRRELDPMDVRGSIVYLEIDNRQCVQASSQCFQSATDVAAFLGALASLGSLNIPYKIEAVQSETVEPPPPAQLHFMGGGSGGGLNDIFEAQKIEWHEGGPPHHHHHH
Nature of the test: SPR (Biacore T100), ratio of KD to that of rat 438-hIgG1. How it is done:
(§4) The kinetic constants of the anti-Notch1 NRR interactions were determined by surface plasmon resonance (Biacore® T100, Biacore Inc., Piscataway, N.J.). Flow cells of a CM5 chip were immobilized with approximately 10,000 Resonance Unit (RU) of anti-human IgG-Fc (Biacore®) in 10 mM Glycine, pH 5.0 at 10 μl/min for 600 seconds. […] Association of four concentrations of human Notch1 NRR_Avi_His recombinant protein (from 3.7-100 nM) and a zero concentration (running buffer) at 100 μl/min were recorded for 3 minutes in TBS with 1 mM CaCl₂. Dissociation of the complexes was measured for 10 minutes. The surface of the chip was regenerated by injecting 3M MgCl₂ with 3 mM EGTA for 60 seconds at 10 μl/min. Curves obtained after subtraction of the reference and buffer signals were fitted to a 1:1 Langmuir binding model with Biacore® T100 Evaluation Software (Biacore®).
For the molecule B1, the “Fold difference from rat 438” value came out at 2.21 fold.
Take B2: the “Fold difference from rat 438” value is 0.42 fold.
As for B4, the “Fold difference from rat 438” value was found to be 5.02 fold.
On the same count and under the same terms, the figure for B5 is 1.47 fold; for B8 it is 1 fold.

Another test has as its target T2, human Notch1 NRR_Avi_His recombinant …. Briefly: SPR (Biacore T100), antibody captured by anti-human IgG-Fc, NRR_Avi_His as analyte, 1:1 Langmuir model. As to the method: as §4
In general terms: Surface plasmon resonance follows binding to a sensor surface in real time, without labels.
In general, Kd refers to the concentration at which binding is half-saturated. For orientation: koff means the rate constant with which the complex falls apart. As usually defined, the kon is the second-order rate constant of association. Turning to B1, the Kd was 9.65 nM and 9.6 nM; the koff is 0.000422 s⁻¹; the kon worked out at 43700 M⁻¹ s⁻¹.
As to B2, the Kd amounted to 1.83 nM, the koff came to 0.000442 s⁻¹ and the kon worked out at 242000 M⁻¹ s⁻¹.
Take B4: the Kd stood at 21.8 nM, the koff turned out to be 0.00103 s⁻¹ and the kon stood at 47400 M⁻¹ s⁻¹.
Regarding B5, the Kd is 6.42 nM and 6.4 nM; the koff was 0.000389 s⁻¹; the kon was 60500 M⁻¹ s⁻¹.
For the molecule B8, the Kd was found to be 4.34 nM, the koff worked out at 0.000229 s⁻¹ and the kon is 52700 M⁻¹ s⁻¹.

Another test concerns the target T1, full-length human Notch1 expressed on …. Nature of the test: cell-based or functional assay.
On to B10, for which the “IC50, Notch1 signaling inhibition co-culture reporter assay” value is 0.11 nM and the “Maximal Inhibition (%), Notch1 signaling inhibition co-culture reporter assay” value was found to be 95.3%.

The target in a further test is T3, full-length mouse Notch1 expressed on the cell surface of U-2 OS cells (mouse, UniProt Q01705 19-2531).
T3 construct: whole, on cells; also called murine Notch1
T3 sequence (Q01705 19-2531): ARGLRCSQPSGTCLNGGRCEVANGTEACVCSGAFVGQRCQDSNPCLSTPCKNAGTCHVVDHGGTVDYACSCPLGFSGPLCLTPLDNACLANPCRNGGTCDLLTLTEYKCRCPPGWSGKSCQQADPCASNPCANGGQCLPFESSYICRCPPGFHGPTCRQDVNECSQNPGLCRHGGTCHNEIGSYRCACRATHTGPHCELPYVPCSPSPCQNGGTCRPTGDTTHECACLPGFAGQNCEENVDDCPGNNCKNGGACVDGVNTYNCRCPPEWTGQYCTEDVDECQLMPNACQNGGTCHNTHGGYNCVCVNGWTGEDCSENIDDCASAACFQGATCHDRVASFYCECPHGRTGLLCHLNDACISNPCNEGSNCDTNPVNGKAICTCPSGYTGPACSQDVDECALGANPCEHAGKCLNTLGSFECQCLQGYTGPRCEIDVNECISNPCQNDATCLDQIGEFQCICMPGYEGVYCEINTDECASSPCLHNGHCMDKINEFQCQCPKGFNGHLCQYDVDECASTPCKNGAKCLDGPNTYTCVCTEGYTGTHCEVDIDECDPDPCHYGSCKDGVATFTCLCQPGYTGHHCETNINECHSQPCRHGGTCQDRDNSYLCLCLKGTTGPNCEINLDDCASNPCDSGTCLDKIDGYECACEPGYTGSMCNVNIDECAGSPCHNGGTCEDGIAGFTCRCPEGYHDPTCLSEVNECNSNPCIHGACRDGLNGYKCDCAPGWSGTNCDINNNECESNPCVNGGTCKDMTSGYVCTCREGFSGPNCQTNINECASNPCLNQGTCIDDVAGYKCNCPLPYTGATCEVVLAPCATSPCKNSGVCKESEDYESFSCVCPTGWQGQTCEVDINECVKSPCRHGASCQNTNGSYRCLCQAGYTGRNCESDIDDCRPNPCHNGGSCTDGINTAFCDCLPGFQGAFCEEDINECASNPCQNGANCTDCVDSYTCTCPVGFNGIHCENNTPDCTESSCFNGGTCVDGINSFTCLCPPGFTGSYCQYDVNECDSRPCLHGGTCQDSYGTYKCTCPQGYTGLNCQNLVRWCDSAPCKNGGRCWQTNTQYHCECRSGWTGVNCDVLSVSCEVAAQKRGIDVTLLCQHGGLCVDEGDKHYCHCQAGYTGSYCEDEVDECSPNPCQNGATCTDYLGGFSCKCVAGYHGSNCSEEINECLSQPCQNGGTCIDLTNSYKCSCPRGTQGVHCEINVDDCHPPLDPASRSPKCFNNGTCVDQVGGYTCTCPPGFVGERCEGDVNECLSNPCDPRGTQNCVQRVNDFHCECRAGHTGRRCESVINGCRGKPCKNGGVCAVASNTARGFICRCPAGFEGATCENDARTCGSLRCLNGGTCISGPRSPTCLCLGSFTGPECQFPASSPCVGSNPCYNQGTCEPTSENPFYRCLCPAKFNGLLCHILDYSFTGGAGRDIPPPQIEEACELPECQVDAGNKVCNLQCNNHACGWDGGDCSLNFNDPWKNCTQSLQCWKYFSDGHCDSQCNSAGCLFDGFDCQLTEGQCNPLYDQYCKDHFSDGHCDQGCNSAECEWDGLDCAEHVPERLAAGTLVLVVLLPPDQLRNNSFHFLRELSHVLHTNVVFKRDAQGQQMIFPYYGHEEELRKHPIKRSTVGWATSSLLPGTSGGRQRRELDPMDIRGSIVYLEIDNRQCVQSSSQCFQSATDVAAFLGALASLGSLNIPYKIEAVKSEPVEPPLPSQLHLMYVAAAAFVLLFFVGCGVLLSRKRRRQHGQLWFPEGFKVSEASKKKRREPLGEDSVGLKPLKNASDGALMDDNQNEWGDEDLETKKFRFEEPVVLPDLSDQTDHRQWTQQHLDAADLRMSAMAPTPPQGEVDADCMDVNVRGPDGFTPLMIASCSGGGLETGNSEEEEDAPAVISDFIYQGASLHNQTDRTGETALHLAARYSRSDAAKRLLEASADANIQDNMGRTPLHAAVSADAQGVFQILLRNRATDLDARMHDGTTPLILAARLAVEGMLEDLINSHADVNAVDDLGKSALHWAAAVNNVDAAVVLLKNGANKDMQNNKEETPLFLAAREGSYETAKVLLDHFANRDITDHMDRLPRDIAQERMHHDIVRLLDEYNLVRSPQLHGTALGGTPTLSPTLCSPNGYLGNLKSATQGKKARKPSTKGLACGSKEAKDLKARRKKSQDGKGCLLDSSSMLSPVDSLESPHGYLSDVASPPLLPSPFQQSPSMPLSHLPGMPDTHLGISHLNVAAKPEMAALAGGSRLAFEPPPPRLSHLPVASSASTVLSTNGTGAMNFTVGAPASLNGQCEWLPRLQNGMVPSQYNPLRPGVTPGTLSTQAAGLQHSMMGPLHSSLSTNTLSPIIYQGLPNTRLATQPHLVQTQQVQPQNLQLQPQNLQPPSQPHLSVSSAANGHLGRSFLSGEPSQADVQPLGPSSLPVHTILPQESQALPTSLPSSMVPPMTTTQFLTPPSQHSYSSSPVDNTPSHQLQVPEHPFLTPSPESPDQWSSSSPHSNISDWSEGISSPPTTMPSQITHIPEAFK
Nature of the test: cell-based ELISA, U-2 OS cells expressing full-length mouse Notch1. As to the method: as §3
With B1, the midpoint of the response, the EC50, lay at 0.129 nM.
For B2, the EC50 was found to be 0.0934 nM.
Turning to B4, the EC50 is 0.144 nM.
Molecule B5 showed an EC50 of 0.229 nM.
In turn, B6 had a 50% effective concentration (EC50) of 0.146 nM.
Regarding B7, the EC50 is 0.137 nM.
For the molecule B9, the EC50 worked out at 0.172 nM.

In the next test the target is T2, human Notch1 NRR_Avi_His recombinant …. Nature of the test: competition ELISA on coated human Notch1 NRR_Avi_His; competitor 0.8 nM biotinylated rat 438. How it is done:
as §1, §2
Turning to B1, the EC50 is 0.6 nM.
For the molecule B2, the EC50 was 2.5 nM.
B3: the concentration giving a half-maximal response (EC50) is 2.1 nM.
On to B4, for which the EC50 turned out to be 1.1 nM.
Still for that read-out and setting: the same measure for B5: 0.7 nM; for B6: 7 nM.
Consider B7, for which the EC50 came to 0.4 nM.
Consider B8, for which the EC50 was found to be 2.1 nM.

The target of another test is T3, full-length mouse Notch1 expressed on …. Nature of the test: cell-based or functional assay.
B2: the “IC50, mouse Notch1 reporter gene co-culture assay (DLL4-HEK293)” value was determined as 0.62 nM.
Turning to B3, the “IC50, mouse Notch1 reporter gene co-culture assay (DLL4-HEK293)” value amounted to 1.37 nM.
The same measure, in the same setting: the same measure for B6: 0.5 nM.

A further test deals with T1, full-length human Notch1 expressed on …. Nature of the test: cell-based or functional assay. The source holds these as a separate data set.
Take B1: the “IC50, human Notch1 reporter gene co-culture assay (DLL4-HEK293)” value was found to be 0.657 nM.
With B2, the “IC50, human Notch1 reporter gene co-culture assay (DLL4-HEK293)” value worked out at 0.45 nM.
Consider B3, for which the “IC50, human Notch1 reporter gene co-culture assay (DLL4-HEK293)” value was 1.87 nM.
On to B4, for which the “IC50, human Notch1 reporter gene co-culture assay (DLL4-HEK293)” value was determined as 0.46 nM.
For the molecule B5, the “IC50, human Notch1 reporter gene co-culture assay (DLL4-HEK293)” value stood at 1.19 nM.
Regarding B6, the “IC50, human Notch1 reporter gene co-culture assay (DLL4-HEK293)” value came out at 0.35 nM.
On to B7, for which the “IC50, human Notch1 reporter gene co-culture assay (DLL4-HEK293)” value came out at 0.38 nM.
As to B8, the “IC50, human Notch1 reporter gene co-culture assay (DLL4-HEK293)” value was 0.65 nM.

For the origin of these results see patent US20160002331A1 (Pfizer, published 2016).
